Source: paper PMC9755681, “Next-generation sequencing of a combinatorial peptide phage library screened against ubiquitin identifies peptide aptamers that can inhibit the in vitro ubiquitin transfer cascade” (Frontiers in Microbiology, 2022)
No end group written: not given here. *: point of attachment. Biotin = O=C1N[C@H]2[C@H](CS[C@H]2CCCCC(=O)*)N1

What was measured:
[1] = target: T1, Ubiquitin (ubiquitination reactions, HDX-MS and reverse-phase HPLC) (human, UniProt P0CG48 1-76); experiment: HDX-MS; global deuteration of intact ubiquitin, 2 uM, ubiquitin to peptide 1:2 and 1:5, room temperature, 1 min in deuterated water with 0.1% DMSO; conditions: both partners purified
T1 construct: ubiquitin, human; the 76-residue ubiquitin unit cut from its precursor; That the HDX/HPLC ubiquitin is the Boston Biochem one is surmised; also called ubiquitin protein; native ubiquitin; source: bought: Boston Biochem (ubiquitination reactions)

[2] = target: T2, uniformly labeled 15N-human ubiquitin (human, UniProt P0CG48 1-76, uniformly 15N-labeled); experiment: NMR titration; 1H-15N HSQC and 15N relaxation of 0.5 mM 15N-ubiquitin, 10 mM sodium phosphate pH 5.0, 298 K, without and with peptide (0.64 mg peptide 12 or 0.7 mg peptide 37 in 0.55 ml); conditions: both partners purified
T2 construct: ubiquitin, human; the 76-residue ubiquitin unit cut from its precursor; also called N15-labeled Ubiquitin; source: bought: Asla Biotech (Latvia)

B1: peptide-12 (Biotin-SGSG-AKFDMHIATRLS-amide) (peptide)
peptide: Biotin-SGSGAKFDMHIATRLS-NH2
SMILES: CC[C@H](C)[C@H](NC(=O)[C@H](Cc1c[nH]cn1)NC(=O)[C@H](CCSC)NC(=O)[C@H](CC(=O)O)NC(=O)[C@H](Cc1ccccc1)NC(=O)[C@H](CCCCN)NC(=O)[C@H](C)NC(=O)CNC(=O)[C@H](CO)NC(=O)CNC(=O)[C@H](CO)NC(=O)CCCC[C@@H]1SC[C@@H]2NC(=O)N[C@@H]21)C(=O)N[C@@H](C)C(=O)N[C@H](C(=O)N[C@@H](CCCNC(=N)N)C(=O)N[C@@H](CC(C)C)C(=O)N[C@@H](CO)C(N)=O)[C@@H](C)O
notes: spacer; phage-selected 12-mer; also called synthetic peptide 12; source: synthetic peptide (Chiron Mimotopes, Australia)
binding result [1]: binds

B2: Non-tagged peptide-12 (AKFDMHIATRLS), non-biotinylated with a C-terminal NH2 (peptide)
peptide: AKFDMHIATRLS-NH2
notes: phage-selected 12-mer; source: synthetic peptide
binding result [2]: binds

B3: Non-tagged Peptide-37 (FIPAQLHFHWRS), non-biotinylated with a C-terminal NH2 (peptide)
peptide: FIPAQLHFHWRS-NH2
notes: as for B2
binding result [2]: binds

B4: peptide-37 (Biotin-SGSG-FIPAQLHFHWRS-amide) (peptide)
peptide: Biotin-SGSGFIPAQLHFHWRS-NH2
SMILES: CC[C@H](C)[C@H](NC(=O)[C@H](Cc1ccccc1)NC(=O)CNC(=O)[C@H](CO)NC(=O)CNC(=O)[C@H](CO)NC(=O)CCCC[C@@H]1SC[C@@H]2NC(=O)N[C@@H]21)C(=O)N1CCC[C@H]1C(=O)N[C@@H](C)C(=O)N[C@@H](CCC(N)=O)C(=O)N[C@@H](CC(C)C)C(=O)N[C@@H](Cc1c[nH]cn1)C(=O)N[C@@H](Cc1ccccc1)C(=O)N[C@@H](Cc1c[nH]cn1)C(=O)N[C@@H](Cc1c[nH]c2ccccc12)C(=O)N[C@@H](CCCNC(=N)N)C(=O)N[C@@H](CO)C(N)=O
notes: spacer; phage-selected 12-mer; also called synthetic peptide 37; source: synthetic peptide (Chiron Mimotopes, Australia)
binding result [1]: binds
